Laboratory results from patent US20220409663A1.

Target: transforming growth factor-beta receptor 2 (TGFBR2) (human) (UniProt P37173)
Assay: cell-based or functional assay

UniProt P37173, sequence (P37173 23-567): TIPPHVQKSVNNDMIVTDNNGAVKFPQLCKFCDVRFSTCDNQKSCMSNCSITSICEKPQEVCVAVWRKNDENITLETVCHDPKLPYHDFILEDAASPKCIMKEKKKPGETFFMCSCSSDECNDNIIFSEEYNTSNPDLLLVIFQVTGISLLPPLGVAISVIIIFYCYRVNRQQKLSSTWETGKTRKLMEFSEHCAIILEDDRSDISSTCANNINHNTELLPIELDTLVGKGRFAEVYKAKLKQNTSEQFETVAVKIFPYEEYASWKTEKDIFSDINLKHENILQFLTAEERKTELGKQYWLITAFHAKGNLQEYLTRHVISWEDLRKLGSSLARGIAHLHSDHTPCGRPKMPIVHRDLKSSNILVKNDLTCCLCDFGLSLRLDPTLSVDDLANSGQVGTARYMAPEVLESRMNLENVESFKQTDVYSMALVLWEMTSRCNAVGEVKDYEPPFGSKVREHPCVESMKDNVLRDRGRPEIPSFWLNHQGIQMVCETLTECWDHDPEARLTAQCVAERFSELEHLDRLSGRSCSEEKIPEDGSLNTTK

Substance: transforming growth factor-β (TGFβ) (ligand)
- fold change in cytokine concentration from TGF-β:vehicle treated cells (pro-inflammatory cytokine secretion, 3 days, TGF-β 10 ng/ml) (fold change (ratio)): < 1
